Experimental data taken from patent US20140248360A1, “NANOPARTICLE TUMOUR VACCINES” (MIDATECH LIMITED, priority 2011, published 2014).

How the values were obtained:
[1] = Aggregation and solubility of nanoparticle preparations; type: physicochemical; settings: for NP formed in repeat production: 75% methanol not 95% in the synthesis stage
Method: Samples were bench spun the supernatant removed and the dark pellet dissolved in 2 ml water, and then transferred to a 10 kDa vivaspin for a total of 4 times 2 ml water washes each of 8 min at 5 Krpm. Nanoparticles (NPs) were removed from the vivaspins and made up to 500 μl with water, they were then subjected to 15 Krpm bench spin to remove any large aggregates.
NP's 2-5 were produced by a variation using 75% methanol not 95% in the synthesis stage.

[2] = molecular target: SIINFEKL:K^b complex (SIINFEKL complexed to H-2K^b) on LK^b cells (murine) (UniProt P01901); assay: cell-based or functional assay
Chain of UniProt P01901 (P01901 22-369 limits assumed, one chain of several): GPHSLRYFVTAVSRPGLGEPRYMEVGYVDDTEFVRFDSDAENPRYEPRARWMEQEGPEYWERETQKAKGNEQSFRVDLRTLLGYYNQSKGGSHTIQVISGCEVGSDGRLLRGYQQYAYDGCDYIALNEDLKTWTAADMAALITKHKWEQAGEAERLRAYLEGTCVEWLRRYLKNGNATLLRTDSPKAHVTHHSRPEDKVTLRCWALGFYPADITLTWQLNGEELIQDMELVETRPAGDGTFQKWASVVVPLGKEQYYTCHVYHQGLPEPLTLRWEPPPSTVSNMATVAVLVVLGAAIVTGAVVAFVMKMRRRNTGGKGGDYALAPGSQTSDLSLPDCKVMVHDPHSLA

Row | Substance | solubility of NP aggregates in NaOH ([1]; 300 mM NaOH) | NP formed in repeat production [1] | aggregation of NP after synthesis ([1]; first production, after 15 Krpm bench spin) | solubility of NP aggregates ([1]; water, 10% acetic acid, PBS, DMSO or DMF) | β-galactosidase measured using a luminescent substrate (B3Z activation); limit of detection as SIINFEKL pulse concentration [2]
1 | NP 3: gold nanoparticle, GlcC2 corona, peptide ligand FLSIINFEKL-N-(CH2)2-SH | total NP solubilisation | formed aggregates | large near complete aggregation | not soluble | 
2 | T cell receptor of the SIINFEKL:Kb-specific T hybridoma B3Z (TCR) |  |  |  |  | 5 ng/mL
3 | NP 2: gold nanoparticle, GlcC2 corona, peptide ligand SIINFEKL-N-(CH2)2-SH |  | ‘normal’ NP |  |  | 
